These results are taken from PMC6160157.

In test [1] the target is HA tri-stalk protein (HA amino acids 403-474 of the pandemic strain A/Luxembourg/43/2009(H1N1)) (Influenza A virus A/Luxembourg/43/2009(H1N1)). The test is described as follows: crystal structure.
For test [2] the target is unchanged. The test is described as follows: SEC. A general note: SEC sorts molecules by how far they enter the pores of the column.

For the substance “HA tri-stalk protein (HA amino acids 403-474 of the pandemic strain A/Luxembourg/43/2009(H1N1)) (domain or fragment)”, the stoichiometry N in test [1] and in test [2] was 3 in each case.

A word on the stoichiometry N: it is the number of molecules, sites or subunits per partner or assembly.
